# Results reported in patent US20180119119.
# How the values were obtained:
# Assay in all cases: cell_activity
# [1] = test system: ExoS54-FLAG-TALEN2 (gfp/Venus right TALEN) (Artificial); conditions: paired with TALEN1; T3SS protein injection into EB5 mESC, MOI 100, 3 h; about 30% at MOI 400; indels confirmed by sequencing
# [2] = test system: ExoS54-FLAG-HPRT1-T2 (HPRT1 right TALEN) (Artificial); conditions: paired with HPRT1-T1; human iPSC, MOI 100, 3 h, after 6TG selection, no template; overall mutation efficiency about 1%
# [3] = test system: ExoS54-FLAG-HPRT1-T1 (HPRT1 left TALEN) (Artificial); conditions: paired with HPRT1-T2; human iPSC, MOI 100, 3 h, after 6TG selection, no template; overall mutation efficiency about 1%
# [4] = test system: ExoS54-FLAG-TALEN1 (gfp/Venus left TALEN) (Artificial); conditions: paired with TALEN2; T3SS protein injection into EB5 mESC, MOI 100, 3 h; about 30% at MOI 400; indels confirmed by sequencing
sequence,measurement,setting,value
CTGGACGGCGACGTAAA (double strand) [gfp TALEN right half-site (top strand)],activity (% GFP-negative cells),[1],20
GATGGGAGGCCATCACATTGT (double strand) [HPRT1 exon 2 TALEN right half-site (top strand)],activity (% DNA lost XhoI site),[2],20
GTAGGACTGAACGTCTTGCTC (double strand) [HPRT1 exon 2 TALEN left half-site],activity (% DNA lost XhoI site),[3],20
TTCACCGGGGTGGTGCC (double strand) [gfp TALEN left half-site],activity (% GFP-negative cells),[4],20
